Results from patent publication US20140363427A1.

Legend:
[1] = substrate: F protein of RSV B-1 (respiratory syncytial virus B-1) (UniProt O36634); experiment: cell-based or functional assay
[2] = substrate: F protein of RSV B-wash (strain 18537) (respiratory syncytial virus B, strain 18537) (UniProt P13843); experiment: cell-based or functional assay
F protein of RSV B-wash (strain 18537) (respiratory syncytial virus B, strain 18537), sequence (P13843 26-574): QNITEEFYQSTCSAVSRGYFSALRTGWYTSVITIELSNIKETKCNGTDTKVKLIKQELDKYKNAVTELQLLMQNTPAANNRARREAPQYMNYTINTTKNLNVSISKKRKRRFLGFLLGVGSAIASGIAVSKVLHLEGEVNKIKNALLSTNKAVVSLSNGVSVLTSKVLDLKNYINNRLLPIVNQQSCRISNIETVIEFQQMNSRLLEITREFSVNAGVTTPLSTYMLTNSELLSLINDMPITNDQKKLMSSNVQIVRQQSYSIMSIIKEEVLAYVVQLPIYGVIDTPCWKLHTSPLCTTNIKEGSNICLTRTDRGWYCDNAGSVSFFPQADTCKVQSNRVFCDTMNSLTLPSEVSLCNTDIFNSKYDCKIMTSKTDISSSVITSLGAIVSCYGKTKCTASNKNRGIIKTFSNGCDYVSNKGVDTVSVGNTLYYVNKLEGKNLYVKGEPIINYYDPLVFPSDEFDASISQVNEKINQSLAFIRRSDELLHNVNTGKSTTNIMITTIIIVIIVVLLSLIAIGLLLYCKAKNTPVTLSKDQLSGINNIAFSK

F protein of RSV B-1 (respiratory syncytial virus B-1), sequence (O36634 26-574): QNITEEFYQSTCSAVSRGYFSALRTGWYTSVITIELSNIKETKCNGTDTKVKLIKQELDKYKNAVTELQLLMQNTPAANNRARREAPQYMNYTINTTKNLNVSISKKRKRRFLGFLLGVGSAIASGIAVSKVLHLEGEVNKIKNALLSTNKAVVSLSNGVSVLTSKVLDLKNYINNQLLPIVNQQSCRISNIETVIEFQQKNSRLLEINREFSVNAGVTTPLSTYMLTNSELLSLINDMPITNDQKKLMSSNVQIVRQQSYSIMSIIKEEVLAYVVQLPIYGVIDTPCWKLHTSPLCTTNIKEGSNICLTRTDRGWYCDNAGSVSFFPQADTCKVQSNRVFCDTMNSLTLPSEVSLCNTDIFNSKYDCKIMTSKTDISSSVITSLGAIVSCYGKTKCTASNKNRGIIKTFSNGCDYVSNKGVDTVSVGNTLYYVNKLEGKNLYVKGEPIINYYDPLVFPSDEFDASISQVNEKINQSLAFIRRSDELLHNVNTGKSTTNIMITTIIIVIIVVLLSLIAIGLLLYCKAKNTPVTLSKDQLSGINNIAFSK

B1: IgG form of 90D3 (antibody, V domains shown)
VH: QVQLVESGGGLVKPGGSLRLSCVGSGFTLKNYEMNWVRQAPGQGLQYISYISSSGNVVKYVDSVQGRFTISRDNAGNSLYLQMNNLRAEDTATYYCVRGFSIDKYDSSVDEYWGQGIAVTVSS
VL: AIRLTQSPSSLSASVGDRVSITCRASQSISNFLNWYQQKPGRAPKLLISAASSLQGGVPSRFSGSGSGTDFTLTISSLQPEDFATYYCQQTYISLYTFGQGTKLEIKR
Question: Which ED50, plaque reduction, RSV B-1 [1] does the source give for B1 here?
Answer: Its ED50, plaque reduction, RSV B-1 is 1.4 nM.

Question: What about the ED50, plaque reduction, RSV B/wash [2] of the same binder?
Answer: Its ED50, plaque reduction, RSV B/wash is 1.4 nM.
